Test: protease stability score; higher = more stable; yeast display proteolysis, trypsin and chymotrypsin;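 also: relative to predicted unfolded state with 0 unfolded-like and 1 meaning tenfold more protease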

| Sequence | protease stability score |
| --- | --- |
| SEEEHRVKELSELMLHWFKTGDEETMDHLMDPDARFELQVGDKEVHSHGWESVHKVLRRTLFWLGADHYNDKDFKHQGDKSKIDMTVHVGDKTVEVTLHLKIVDGRLKFLEIRVK | 1.16 |
| SEEEHTSEEALRAFVFLELTGDEKSLIELLDPRTRIHAENHEVVGRERATEEWRRWLEFYKNIRVHDVEIEEIHLIDGRIKLIMRRDGVINGVKRETHIRMITNKVNGRWLVHSIIIR | 1.37 |
| SEEEHVAEELIKQFLRKFSTGDEDSMRNLFDPNVKIEQGEFDIHGREEETRYFRELRVHIEDSTAREIRVQGDKVDIDLEVVGIVHFNGKTVRRIIRTRVHLLKVDGQWHIKSIQIL | 1.24 |
| SEEEHVAKKLSDLILHAWRTGDEDQLSRLMDPHVRMIIGDKHLHGREEVSRWLHDWRRQVDHVEFHVKRFHVQGNKYTNDGHFVVHQGDKETRTDVEIILIVVDGKIHEIRIIIR | 2.17 |
| SEEEHVLEFIVKLFLEAWLTGDEDIIDWLVDPHTRLHVNGVDLHGREEVSHFLAHIRVEQLHIDDERITNINGVLHVDIKTEERFDVNGRVTRTKSELHIFIRKVDGRWFIQVFKIVYH | 0.332 |
| SEEEHVMVEIVRKLTEAKHTGDFKTEHELMDPHARIDINGVEIHGMEEWRHLYEEWRFIVHRTHVRHVHVQGDKVDLKGEFRGVIDYDGREIEYNTKVNLHLHKVDGRWQLHDVKTT | 0.552 |
| SEEEHVTDLALELWIRTHNTGNWHLLKRLLDPNTRVQVGNKIYHGMELISKEIFRKLLEMGFETHIEVEDSEYFEGHVRFRITIRLVVGDKEIILDTELLMIKFNGRWFITEIRIE | 0.686 |
| SEEEHWLDDAFRWLIELIFTGDETEIEKMIDPNVKIHIGEKNNHGREIMIEWLERLGVKHVREMRIRHVHRQGNKLIVHGEIHREVDGVKIETESLIVAKKVDGQWHLQSVRVN | 2.37 |
| SEEEHWVELLIELLERTQKTGDEHSFERLMDPNVRIIIGDKVMHGREEASRWMHEARVHETRIEHIRIINGRAHIDSRERGEINGREINLRVEIISSKVDGRWVITEVRVE | 0.943 |
| SEEEHWVREFEEAVRHDAETGDENSISEFLDPNVRVDINGKELHGRELMDEMIRHFLERYDHIRIHIHDNRLIDGRVEMDIRLYFIQGEKHMEIDSERFIFKVDGKWRLEEVRIK | 0.3 |
| SEEEHYMLKVAKLAVRNYFTGNEHVLDELFDPHTRQEVNGVENHGRETVRDFLREHLKHMRFHDFKIRDFKWQGDKAHTETETDVEIDGQRIPLRMEIIIIIIDGVPKSISLRLG | 1.05 |
| SEEEHYRREMIHFSREVWETGDWDSLMNLADPNVRIEAENHDLHGREFFVKLMEEISRKFKNVRIIIRHLHIQGDKVEMHSEIIFNGRSVHVTFFALKVNGRWIFKEMVFI | 0.925 |
| SEEEIMTKLAEKILKMHWDTGDERIRKELADPHVRIDQGDFNLHGWEVLHLTLNLLGVTKFRLHILEIHDVSMQGDKIEMDIEVHMHVNGRKISFRVQVHSIKIDGKWKQHSLIIH | 0.153 |
| SEEEKAFKESYDVWIEALKTGNEEESREMFDPTPLQVVNGQELHGRDHIEQEVSEWRIDHVDIDELRLQGDKAILHGRVSGHINGKRVKFEEKLVMHKIDGRWFIRSVIVR | 0.333 |
| SEEEKAIIDLFKLWIHAFVTGDEEKLSELMDPRVRLTVGDKHLHGMEIVVEWYRRLRDKIKNLQFRSFEIEDFRIVNGRVELEAVIHIHFNGQMRTIEVRFILEKVDGRWFLKSVEEK | 2.57 |
| SEEEKDARDFIDYLVHHLETGDEEEFEKLIDPHTRLQVDGRHFHGREAYEWMLYQFKNVKIKHLTIRHIEIQGDKVHITSTWNLIVDGQEKELRTHIILDKVNGRWMIRKMRIQ | 1.8 |
| SEEEKDATDMLEHYIRSLLTGDEHLWRELADPNVKTEIDGVEMIGRESWRILVERLGVDHSDVEDIDFRFYDGRLNVRVKTRHHVNGRTFETELIVIIEKINGRWRVTQIEIRIK | 2.5 |
| SEEEKDIKNAFRLLVKIIRTGDWEDHHKQMDPDVLIIVGDKEHHGWEEASRFMKEHLERVDHEDLKLRRVHIQGEKMELDGELFVNVDGRLIRMRVIFFLNKVNGRWVIHSLEIR | 2.28 |
| SEEEKDNKLAIHLTMEILRTGDEEHSKKMIDPDARHQQGDKELHGMEEVSTEIMEIWRRYKGVKFEVKRVHMQGEFIKIKVDLHVNGQTLDVIIVLYKVDGRWTIHSIHVH | 1.48 |
| SEEEKEAEDILRMVIHVLRTGDWHTLKNMLDPHAKNDVNGREQVGMRDWIETFTRIHRELGISNIDFKLHDIRITEHHVLVDGILIFNGKEYRLNLIITKINGRWVNEHIHLH | 1.08 |
| SEEEKEAEEAMKRSLRSLETGDEELLDEMADPDVRLHVGEFQLIGRESFRKHQRRLTKRFKNMRFHIHRMEVYGEKLSIFGRFHWDGVDTETEIIEVKINGRWFLREVHIR | 0.639 |
| SEEEKEAEEFLRKHLHDRLTGDEDWVLRNIDPNARFDINGREIIGMEEWRQWLHEARVRVDDTQIDEKRSVGNKLDVRSTMHVTIEFDGVRVKHILDVELIMTKVDGKWKVKEVRVR | 1.61 |
| SEEEKEAERMLRLWIETVKTGNEEVWRELFDPNARMLIGDKESVGREQIEELVRSVYDRLGAKVIHDFYIDRIHVIGDKVEIDSRVDSIINGRRYHLETHIIFVKINGKWVLKSVELR | 2.06 |
| SEEEKEAHDWMEVWLELFHTGDEDMLEHMADPHTRIHVDGRKFHGRENYVRLVRHMRVHHFIERRVRIINGRIHIEGEARVNINGQEIDNHVQIHLNLVDGRLKTEHIKVK | 0.927 |
| SEEEKEAKDALEKLWHYWHTGDEHELVRLADPTMRHIINGRHFHGREFFSELLRRLGFKHIIYHFEDMDVQGDKVHIHGHIESEFDGRRHHMNTHLIILKVNGKWIYESIKFD | 1.32 |

| Sequence | protease stability score |
| --- | --- |
| SEEEKEAQHLLELENDARRTGDEDFSREMVDPNVKIDINGRDLHGWDVAEELMRQADHVHHEHIRQVEVQGDKLIVDMEINGHINGKSFDIKIHLFIWKYNGKWFVRKIDVK | 1.44 |
| SEEEKEARESIHRFEAALKTGNEESLFELLDPHVRIDVNGQELHGWKEWKHIVHENKKRVKGARFRIHHIEIINGRIHLDGEVSINGKDIRTEYIIEKIDGVWRLTEVIIR | 1.28 |
| SEEEKEARRILTHFREVLHTGDEHALLELMDPNVRFILHDENHTVENHGMENMVTSLRKFGFDVIKRVHDKEHHLQGDKIKFHVETLGEINGREFEVEVQIRLYVVDGVLKWSEIIIH | 1.1 |
| SEEEKEDWEWMEIFYDALHTGDEKLIRDNADPNVKFRQGDYHSVGREEYIRKIDELRRRLGITKIRLEIDHVEVINGRSNVDTTIHVNGREIRSTLHVQVVNGRIKEIEIHLR | 1.04 |
| SEEEKEIKEILERLIRSLLTGDEQELAKMADPNVRFNFQVGNKKYTLHGREHLRRHITFVFEYLGFDHITIQDSHYQGDKMTVHVELRVNGRRHEIREHWLVVDGRIKEVHVEIH | 2.32 |
| SEEEKELEEALKIQEEFWRTGDEHSLRELADPHARVHIDGRDLHGREFWSMLSNQLRIEHIEVKSVELVDGRLEADVHVTGRYNGRDVKTRMRLEIVKINGVWYLESTEIN | 0.407 |
| SEEEKELKTLVEELWHAWETGDEDFIHKYMDPHARLHIGDKDHHGREEIRESLRQHREHLRIEHVHRHHVKLVDGRIETHGHILGHIGDKRFETEMIIIIIVINGRIRSMKFDYR | 1.03 |
| SEEEKELREIMKVFKDAFLTGNEDLLRQLMDPHVRFHIGDKKNHGWEALHEYLLRIDHLDDLHSHLTEVHIQGDKVKIDGHLHMVERYGDFRFEREIRVHIVIEKINGRWIIEEVHFI | 1.35 |
| SEEEKELRFVYDLLWHLLKTGDEEITRELADPRVRIDIDGKEWHGRDELARLFDRLHRELGYTVHRTRHHRHDFINGQWHEDGETKGVIGDKEFETHVKIIIIVINGRLKEVIFHYH | 1.16 |
| SEEEKEMEDFLREFEKNLRTGDEEQIRRLADPHVRMEVNGVEHIGRKHVSRFWYHLVRRADHIHIEVEDMHLVGEKMELIGILRLRVNGRDLTHHHRLIVDKIDGRWFLRESRIH | 1.73 |
| SEEEKEMHHIARLFFELWLTGDEETHQRLLDPDAKHSFNGVILHGRDEMIRYWRQFLEEIRLRSIEIRRITSVGDKVHVDSHVDGEVNGRRIVTREYIELEVVDGRWKRVKLHIK | 1.38 |
| SEEEKESEDSMRILEHYFHTGNEESLLKLADPHVRSEINGKIHHGMDLHNEIWKHFVQQFKGARPTSLNFKDVEIQGNKAEFHIELVLTIGNYSIHLEMHIFNEKVDGRWLIRSTYIR | 1.08 |
| SEEEKETEHVLRLFLEIFHTGDWKTLHELFDPHVRLNVGDKHWIGRENVVEQIRHFLERFKNARFHIHRIHIVGDFNDVRTEITINGRTHDTRLWLQVIDGRIESMEIKMN | 2.44 |
| SEEEKETRKNLHEFLESIITGDEDHLVNMMDPHARIEVGDWELVGRHKFHEFASKVKNLKLHIRNTEVYGDKVHIDSEINFNGQRRDMVVHAEKINGKWILKHTRYQ | 1.17 |
| SEEEKEVKEHLKIIHDVIRTGNEHDIKELMDPNMLLVFNGQKHIGRDHWEELLKKLGADHVHLHIRSFTIINGQARLETEVEWRAENRTIRRETEIVTDKINGRWIIHTIIFR | 1.5 |
| SEEEKEVQEYLERSIKDIRTGDEDELRRQLDPNYKLDVNGQKHIGMELWLKILSREVKEIRIDHVERHIEVINGRIDVKGELILNFNGREFRHHFEIHATKFNGRWVVDSMRVE | 1.15 |
| SEEEKEYEHWMRLYLHWRLTGDEEAEKRNADPNTRVEFNGKELHGMEVVSEFIIKLRNEMRFEFLEIDDMRVIDGVSHFDVTVDGVIDGKRVRLTLHIILIVINGKIHHIQEEWK | 1.43 |
| SEEEKFAERFIRLFMEALETGDERVLEELLDPNVRVEVNGREYHGRDVFTRLVREWRIDHLDTHTHRIDSQGDKVNADTRVRFHHKVGDKVHDTEMHVILHSEKFNGRWHMTEIIIR | 1.34 |
| SEEEKHAHEMVRIFLHILKTGDWRTLEKLLDPDVRMSLDINGREHHQVGREEVLKAFIRFLDEWRMDDLHLHDVTIQGDKAYLETEVHITFNGQRHHTHLEIEIYVINGKIKSIRLTIR | 2.36 |
| SEEEKHFEDALERWIRTTDTGDETKLIELMDPHVKVDINGQEFHGWKIVFRFMHHLIRRIDHIIIEVKHLRVYDGRVELDGIIRVRFDGRQMEYNSRFIALKFNGVWLLHSMHFH | 1.87 |
| SEEEKHIIELFEIWLEAIRTGDENLLLKLADPHYRVIIDVGNKHIHRHGWKEFMEWLRHFTREMRIRHLTLRDYRAVNGVFHADTESVEEIGEFELRTRMHIVLVIINGVFHSVRHKIE | 1.23 |
| SEEEKHLEHMARMMVEALMTGDEKLLNHLLDPNVRVEHSINGVEITDHGWHLYVKWVRDLGIDHIYFKDMHHQGNKTHLNIEIEINGKHIETRLLLVIVNGRIHIIKHEIK | 2.08 |
| SEEEKHLRELSEHFIKLFLTGNEEELVNNADPHVQLHIDINGKKYHYHGREEFRKWAEERSEKIKNAKIILDHVEIQGEKLIIDTTWHFDGRNFRSKIKIKVFDGVLKEIHIEIR | 2.1 |
| SEEEKHMHKMHELRNKRTKTGDEHWFEKLADPHYRVEIGDKELIGWEYLVRVRREFGIDHLETVHIDSTEIQGEKVIEHVTIHGEFDGVRNDLKVELIVIKFNGRWVMHSTKVK | 0.761 |
| SEEEKHSHKAVEIITELLKTGDWHEILKNADPTTKSDFNGVELHGWEALQSILKFMGIDHVELKSIDVFNGRLTVHRNMHINGREHHLIIIALKVNGKWVLESMEVH | 1.84 |
